These results are taken from PMC9045395, “Assembly and Functional Role of PACE Transporter PA2880 from Pseudomonas aeruginosa” (Microbiology Spectrum, 2022).

Positions count from the first letter of the chain named. Names and notes keep the numbering of the source.

In one series the target is T1, PA2880 (Pseudomonas aeruginosa, UniProt Q9HZW7).
T1 construct: full length, C-terminal TEV site, eGFP (A206K) and Strep-tag; also tested without eGFP in native MS; expressed in Pseudomonas stutzeri; purified in DDM; dimer
The experiment in a line: native mass spectrometry (LILBID-MS). The note with it: 200 mM ammonium acetate, 0.02% DDM; binding increases dimer population; proton-coupled transport substrate.

Series [1] deals with the molecule itself. The experiment in a line: native MS; LILBID-MS; protein in 200 mM ammonium acetate with 0.02% (wt/vol) DDM, pH 8; monomer to dimer; some samples with chlorhexidine up to a substrate/protein molar ratio of 8 (more dimer).
The series “native MS” deals with the molecule itself. As to the kind of experiment: native MS.
Series [2] concerns the molecule itself. As to the kind of experiment: native MS; LILBID-MS; protein in 200 mM ammonium acetate with 0.02% (wt/vol) DDM, pH series from 5 to 9; monomer to dimer; dimer ratio from deconvoluted zero-charge spectra.

`N=C(NCCCCCCNC(=N)NC(=N)Nc1ccc(Cl)cc1)NC(=N)Nc1ccc(Cl)cc1` [chlorhexidine]: at PA2880, the “native mass spectrometry (LILBID-MS)” value is “The LILIBID-MS results showed that chlorhexidine was bound to PA2880”.

B1: PA2880 fused with enhanced green fluorescent protein (PA2880-eGFP), wild type (natural protein)
chain: MTIQPDFNDEPGAFAMTHTHTALDKTLKERIFHALAFEGLAVLLTAPVLSLVMNKPLAHMGALTLMFSTVAMLWNMLFNSLFDRAQRRMGFQRTLQVRVLHAMLFELGLIVVLVPLAAWWLSIGLVEAFLLDMGLILFFLPYTMAFNWSYDVLRARLVESRQAKAAGCDAG
notes: also called wt; wild-type PA2880 with fused eGFP; source: Pseudomonas stutzeri (pL2020-PA2880-eGFP), purified (Strep XT column, SEC, in DDM); not shown: eGFP (A206K variant), C-terminal, kept
As for B1, the stoichiometry N – broadly, a count of units in the complex or per binding partner – in series [1] was found to be 2.

B2: wild-type PA2880 without fused eGFP (natural protein)
chain: B1 chain
notes: also called PA2880 without eGFP
On to B2, for which the “stoichiometry N” value in “native MS” was determined as 2.

B3: PA2880 E38Q variant (natural protein, Pseudomonas aeruginosa strain PAO1, UniProt Q9HZW7 1-171, looked up)
chain: B1 chain with E38Q
notes: PACE family transporter PA2880 of Pseudomonas aeruginosa strain PAO1 with E38Q; source: purified; not shown: eGFP (A206K variant), C-terminal, kept
Turning to B3, the “stoichiometry N” value in series [2] was determined as 2.
